Values quoted from earlier work in article PMC9782320.

Target: plasmin (Homo sapiens) (UniProt P00747)
Chain of UniProt P00747 (P00747 581-810): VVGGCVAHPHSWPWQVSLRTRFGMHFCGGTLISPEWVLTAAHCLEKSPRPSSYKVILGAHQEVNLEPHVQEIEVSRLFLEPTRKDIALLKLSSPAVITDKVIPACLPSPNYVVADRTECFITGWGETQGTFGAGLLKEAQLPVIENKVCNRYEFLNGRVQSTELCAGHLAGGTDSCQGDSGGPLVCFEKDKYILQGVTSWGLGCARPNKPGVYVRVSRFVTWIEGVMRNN

Question: For staphylokinase (from UniProt P68801), which Kd is on record?
Answer: 10 nM
